Measurements from the RNAGym collection of RNA variant scans (doi:10.1093/molbev/msab373).

B1: Azoarcus group I ribozyme (parent)
chain: GUGCCUUGCGCCGGGAAACCACGCAAGGGAUGGUGUCAAAUUCGGCGAAACCUAAGCGCCCGCCCGGGCGUAUGGCAACGCCGAGCCAAGCUUCGGCGCCUGCGCCGAUGAAGGUGUAGAGACUAGACGGCACCCACCUAAGGCAAACGCUAUGGUGAAGGCAUAGUCCAGGGAGUGGCGAAAGUCACACAAACCGG

Variants of: B1
Test: reverse-splicing fitness (ratio to wild type); higher = more active; in vitro selection; Mg2+ level not given
How it was run: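 An in vitro group I ribozyme library with randomized positions was T7-transcribed and gel-purified. In triplicate, 10 pmol RNA in EPPS pH 7.5 was reacted with 50 pmoles of a 30-nt RNA substrate for 1 h at 37 °C across several added MgCl2 levels (1–48 mM), then stopped with EDTA. Products were reverse transcribed from a substrate-complementary primer, PCR-amplified and sequenced (HiSeq 4000). Fitness is a variant's read proportion after selection over that before, normalised to wild type.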

| Variant | reverse-splicing fitness |
| --- | --- |
| GUGCCUUGCGCCGGGAAACCACGCAAGGGAUGGUGUCAAAUUCGGCGAAACCUAAGCGCCCGCCCGGGCGUAUGGCAACGCCGAGCCAAGCUUCGGCGCCUGCGCCGAUGUAGGUGUAGCGACUAGACGGCACCCACCUAAGGCUAACGGUAUGGUGAAGGCAUAGUCCAGGGAGGGGCGAAAGUCACACAAACCGG | 0.00473 |
| GUGCCUUGCGCCGGGAAACCACGCAAGGGAUGGUGUCAAAUUCGGCGAAACCUAAGCGCCCGCCCGGGCGUAUGGCAACGCCGAGCCAAGCUUCGGCGCCUGCGCCGAUGUAGGUGUAGCGACUAGACGGCACCCACCUAAGGCUAACGUUAUGGUGAAGGCAUAGUCCAGGGAGUGGCGAAAGUCACACAAACCGG | 0.401 |
| GUGCCUUGCGCCGGGAAACCACGCAAGGGAUGGUGUCAAAUUCGGCGAAACCUAAGCGCCCGCCCGGGCGUAUGGCAACGCCGAGCCAAGCUUCGGCGCCUGCGCCGAUGUAGGUGUAGCGACUAGACGGCACCCACCUAAGGCUAACGUUAUGGUGAAGGCAUAGUCAAGGGAGUGGCGAAAGUCACACAAACCGG | 0.0105 |
| GUGCCUUGCGCCGGGAAACCACGCAAGGGAUGGUGUCAAAUUCGGCGAAACCUAAGCGCCCGCCCGGGCGUAUGGCAACGCCGAGCCAAGCUUCGGCGCCUGCGCCGAUGUAGGUGUAGCGACUAGACGGCACCCACCUAAGGCUAACGUUAUGGUGAAGGCAUAGUCAAGGGAGAGGCGAAAGUCACACAAACCGG | 0.0134 |
| GUGCCUUGCGCCGGGAAACCACGCAAGGGAUGGUGUCAAAUUCGGCGAAACCUAAGCGCCCGCCCGGGCGUAUGGCAACGCCGAGCCAAGCUUCGGCGCCUGCGCCGAUGUAGGUGUAGCGACUAGACGGCACCCACCUAAGGCUAACGUUAUGGUGAAGGCAUAGUCAAGGGAGCGGCGAAAGUCACACAAACCGG | 0.00725 |
| GUGCCUUGCGCCGGGAAACCACGCAAGGGAUGGUGUCAAAUUCGGCGAAACCUAAGCGCCCGCCCGGGCGUAUGGCAACGCCGAGCCAAGCUUCGGCGCCUGCGCCGAUGUAGGUGUAGCGACUAGACGGCACCCACCUAAGGCUAACGUUAUGGUGAAGGCAUAGUCAAGGGAGGGGCGAAAGUCACACAAACCGG | 0.0056 |
| GUGCCUUGCGCCGGGAAACCACGCAAGGGAUGGUGUCAAAUUCGGCGAAACCUAAGCGCCCGCCCGGGCGUAUGGCAACGCCGAGCCAAGCUUCGGCGCCUGCGCCGAUGUAGGUGUAGCGACUAGACGGCACCCACCUAAGGCUAACGUUAUGGUGAAGGCAUAGUCGAGGGAGUGGCGAAAGUCACACAAACCGG | 0.00826 |
| GUGCCUUGCGCCGGGAAACCACGCAAGGGAUGGUGUCAAAUUCGGCGAAACCUAAGCGCCCGCCCGGGCGUAUGGCAACGCCGAGCCAAGCUUCGGCGCCUGCGCCGAUGUAGGUGUAGCGACUAGACGGCACCCACCUAAGGCUAACGUUAUGGUGAAGGCAUAGUCGAGGGAGAGGCGAAAGUCACACAAACCGG | 0.0113 |
| GUGCCUUGCGCCGGGAAACCACGCAAGGGAUGGUGUCAAAUUCGGCGAAACCUAAGCGCCCGCCCGGGCGUAUGGCAACGCCGAGCCAAGCUUCGGCGCCUGCGCCGAUGUAGGUGUAGCGACUAGACGGCACCCACCUAAGGCUAACGUUAUGGUGAAGGCAUAGUCGAGGGAGCGGCGAAAGUCACACAAACCGG | 0.0102 |
| GUGCCUUGCGCCGGGAAACCACGCAAGGGAUGGUGUCAAAUUCGGCGAAACCUAAGCGCCCGCCCGGGCGUAUGGCAACGCCGAGCCAAGCUUCGGCGCCUGCGCCGAUGUAGGUGUAGCGACUAGACGGCACCCACCUAAGGCUAACGUUAUGGUGAAGGCAUAGUCGAGGGAGGGGCGAAAGUCACACAAACCGG | 0.00445 |
| GUGCCUUGCGCCGGGAAACCACGCAAGGGAUGGUGUCAAAUUCGGCGAAACCUAAGCGCCCGCCCGGGCGUAUGGCAACGCCGAGCCAAGCUUCGGCGCCUGCGCCGAUGUAGGUGUAGCGACUAGACGGCACCCACCUAAGGCUAACGUUAUGGUGAAGGCAUAGUCUAGGGAGUGGCGAAAGUCACACAAACCGG | 0.112 |
| GUGCCUUGCGCCGGGAAACCACGCAAGGGAUGGUGUCAAAUUCGGCGAAACCUAAGCGCCCGCCCGGGCGUAUGGCAACGCCGAGCCAAGCUUCGGCGCCUGCGCCGAUGUAGGUGUAGCGACUAGACGGCACCCACCUAAGGCUAACGUUAUGGUGAAGGCAUAGUCUAGGGAGAGGCGAAAGUCACACAAACCGG | 0.0306 |
| GUGCCUUGCGCCGGGAAACCACGCAAGGGAUGGUGUCAAAUUCGGCGAAACCUAAGCGCCCGCCCGGGCGUAUGGCAACGCCGAGCCAAGCUUCGGCGCCUGCGCCGAUGUAGGUGUAGCGACUAGACGGCACCCACCUAAGGCUAACGUUAUGGUGAAGGCAUAGUCUAGGGAGCGGCGAAAGUCACACAAACCGG | 0.0381 |
| GUGCCUUGCGCCGGGAAACCACGCAAGGGAUGGUGUCAAAUUCGGCGAAACCUAAGCGCCCGCCCGGGCGUAUGGCAACGCCGAGCCAAGCUUCGGCGCCUGCGCCGAUGUAGGUGUAGCGACUAGACGGCACCCACCUAAGGCUAACGUUAUGGUGAAGGCAUAGUCUAGGGAGGGGCGAAAGUCACACAAACCGG | 0.0049 |
| GUGCCUUGCGCCGGGAAACCACGCAAGGGAUGGUGUCAAAUUCGGCGAAACCUAAGCGCCCGCCCGGGCGUAUGGCAACGCCGAGCCAAGCUUCGGCGCCUGCGCCGAUGUAGGUGUAGCGACUAGACGGCACCCACCUAAGGCUAACGUUAUGGUGAAGGCAUAGUCCAGGGAGAGGCGAAAGUCACACAAACCGG | 0.194 |
| GUGCCUUGCGCCGGGAAACCACGCAAGGGAUGGUGUCAAAUUCGGCGAAACCUAAGCGCCCGCCCGGGCGUAUGGCAACGCCGAGCCAAGCUUCGGCGCCUGCGCCGAUGUAGGUGUAGCGACUAGACGGCACCCACCUAAGGCUAACGUUAUGGUGAAGGCAUAGUCCAGGGAGCGGCGAAAGUCACACAAACCGG | 0.248 |
| GUGCCUUGCGCCGGGAAACCACGCAAGGGAUGGUGUCAAAUUCGGCGAAACCUAAGCGCCCGCCCGGGCGUAUGGCAACGCCGAGCCAAGCUUCGGCGCCUGCGCCGAUGUAGGUGUAGCGACUAGACGGCACCCACCUAAGGCUAACGUUAUGGUGAAGGCAUAGUCCAGGGAGGGGCGAAAGUCACACAAACCGG | 0.0333 |
| GUGCCUUGCGCCGGGAAACCACGCAAGGGAUGGUGUCAAAUUCGGCGAAACCUAAGCGCCCGCCCGGGCGUAUGGCAACGCCGAGCCAAGCUUCGGCGCCUGCGCCGAUGUAGGUGUAGCGACUAGACGGCACCCACCUAAGGCUAACGCUAUGGUGAAGGCAUAGUCAAGGGAGUGGCGAAAGUCACACAAACCGG | 0.0103 |
| GUGCCUUGCGCCGGGAAACCACGCAAGGGAUGGUGUCAAAUUCGGCGAAACCUAAGCGCCCGCCCGGGCGUAUGGCAACGCCGAGCCAAGCUUCGGCGCCUGCGCCGAUGUAGGUGUAGCGACUAGACGGCACCCACCUAAGGCUAACGCUAUGGUGAAGGCAUAGUCAAGGGAGAGGCGAAAGUCACACAAACCGG | 0.00962 |
| GUGCCUUGCGCCGGGAAACCACGCAAGGGAUGGUGUCAAAUUCGGCGAAACCUAAGCGCCCGCCCGGGCGUAUGGCAACGCCGAGCCAAGCUUCGGCGCCUGCGCCGAUGUAGGUGUAGCGACUAGACGGCACCCACCUAAGGCUAACGCUAUGGUGAAGGCAUAGUCAAGGGAGCGGCGAAAGUCACACAAACCGG | 0.0106 |
| GUGCCUUGCGCCGGGAAACCACGCAAGGGAUGGUGUCAAAUUCGGCGAAACCUAAGCGCCCGCCCGGGCGUAUGGCAACGCCGAGCCAAGCUUCGGCGCCUGCGCCGAUGUAGGUGUAGCGACUAGACGGCACCCACCUAAGGCUAACGCUAUGGUGAAGGCAUAGUCAAGGGAGGGGCGAAAGUCACACAAACCGG | 0.0044 |
| GUGCCUUGCGCCGGGAAACCACGCAAGGGAUGGUGUCAAAUUCGGCGAAACCUAAGCGCCCGCCCGGGCGUAUGGCAACGCCGAGCCAAGCUUCGGCGCCUGCGCCGAUGUAGGUGUAGCGACUAGACGGCACCCACCUAAGGCUAACGCUAUGGUGAAGGCAUAGUCGAGGGAGUGGCGAAAGUCACACAAACCGG | 0.00837 |
| GUGCCUUGCGCCGGGAAACCACGCAAGGGAUGGUGUCAAAUUCGGCGAAACCUAAGCGCCCGCCCGGGCGUAUGGCAACGCCGAGCCAAGCUUCGGCGCCUGCGCCGAUGUAGGUGUAGCGACUAGACGGCACCCACCUAAGGCUAACGCUAUGGUGAAGGCAUAGUCGAGGGAGAGGCGAAAGUCACACAAACCGG | 0.00823 |
| GUGCCUUGCGCCGGGAAACCACGCAAGGGAUGGUGUCAAAUUCGGCGAAACCUAAGCGCCCGCCCGGGCGUAUGGCAACGCCGAGCCAAGCUUCGGCGCCUGCGCCGAUGUAGGUGUAGCGACUAGACGGCACCCACCUAAGGCUAACGCUAUGGUGAAGGCAUAGUCGAGGGAGCGGCGAAAGUCACACAAACCGG | 0.00915 |
| GUGCCUUGCGCCGGGAAACCACGCAAGGGAUGGUGUCAAAUUCGGCGAAACCUAAGCGCCCGCCCGGGCGUAUGGCAACGCCGAGCCAAGCUUCGGCGCCUGCGCCGAUGUAGGUGUAGCGACUAGACGGCACCCACCUAAGGCUAACGCUAUGGUGAAGGCAUAGUCGAGGGAGGGGCGAAAGUCACACAAACCGG | 0.00415 |
| GUGCCUUGCGCCGGGAAACCACGCAAGGGAUGGUGUCAAAUUCGGCGAAACCUAAGCGCCCGCCCGGGCGUAUGGCAACGCCGAGCCAAGCUUCGGCGCCUGCGCCGAUGUAGGUGUAGCGACUAGACGGCACCCACCUAAGGCUAACGCUAUGGUGAAGGCAUAGUCUAGGGAGUGGCGAAAGUCACACAAACCGG | 0.168 |
| GUGCCUUGCGCCGGGAAACCACGCAAGGGAUGGUGUCAAAUUCGGCGAAACCUAAGCGCCCGCCCGGGCGUAUGGCAACGCCGAGCCAAGCUUCGGCGCCUGCGCCGAUGUAGGUGUAGCGACUAGACGGCACCCACCUAAGGCUAACGCUAUGGUGAAGGCAUAGUCUAGGGAGAGGCGAAAGUCACACAAACCGG | 0.0319 |
| GUGCCUUGCGCCGGGAAACCACGCAAGGGAUGGUGUCAAAUUCGGCGAAACCUAAGCGCCCGCCCGGGCGUAUGGCAACGCCGAGCCAAGCUUCGGCGCCUGCGCCGAUGUAGGUGUAGCGACUAGACGGCACCCACCUAAGGCUAACGCUAUGGUGAAGGCAUAGUCUAGGGAGCGGCGAAAGUCACACAAACCGG | 0.0439 |
| GUGCCUUGCGCCGGGAAACCACGCAAGGGAUGGUGUCAAAUUCGGCGAAACCUAAGCGCCCGCCCGGGCGUAUGGCAACGCCGAGCCAAGCUUCGGCGCCUGCGCCGAUGUAGGUGUAGCGACUAGACGGCACCCACCUAAGGCUAACGCUAUGGUGAAGGCAUAGUCUAGGGAGGGGCGAAAGUCACACAAACCGG | 0.00586 |
| GUGCCUUGCGCCGGGAAACCACGCAAGGGAUGGUGUCAAAUUCGGCGAAACCUAAGCGCCCGCCCGGGCGUAUGGCAACGCCGAGCCAAGCUUCGGCGCCUGCGCCGAUGUAGGUGUAGCGACUAGACGGCACCCACCUAAGGCUAACGCUAUGGUGAAGGCAUAGUCCAGGGAGAGGCGAAAGUCACACAAACCGG | 0.259 |
